Drawing on paper PMC9992173, “Mapping of the extracellular RBP4 ligand binding domain on the RBPR2 receptor for Vitamin A transport” (Frontiers in Cell and Developmental Biology, 2023), this text covers Kd for 3 molecules.

As usually defined, the Kd is the equilibrium constant for the complex coming apart.

The assay addresses T1, Recombinant mouse RBP4 with 6XHis Tag (mouse, UniProt Q00724 19-201).
T1 construct: Amine-coupled to a CM5 chip for SPR; also called msRBP4; source: E. coli expression system, purified (nickel NTA column)
The assay can be described thus: SPR; mouse RBP4 amine-coupled to a CM5 chip (target 1,200 RU), Biacore S200; peptides as analytes, 0.8-26.6 uM; running buffer PBST (0.05% Tween20); 25 C; contact 120 s, dissociation 300 s; Kd from the site-specific binding fit Y=(Bmax*X)/(Kd+X). To be noted: both partners purified. (In general: SPR reads the build-up and loss of mass on a sensor chip optically.)

B1: zebRBPR2 (34) peptide (peptide)
peptide: DKLDSLKDSLEQIALSCNQTESVFTYLIPSINEF
notes: zebrafish RBPR2 peptide of 34 residues; also called zebrafish RBPR2 peptide; source: synthetic peptide (Biomatik Corporation)
Consider B1, for which the Kd amounted to 33.2 µM.

B2: msRbpr2 (42) peptide (peptide)
peptide: HVRDKLDMFEDKLESYLTHMNETGTLTPIILQVKELISVTKG
notes: mouse RBPR2 (STRA6like) peptide of 42 residues with the SYL residues S294, Y295, L296; also called WT-msRBPR2 peptide; mouse RBPR2 peptide; source: synthetic peptide (Biomatik Corporation)
Consider B2, for which the Kd is 25.4 µM.

B3: msStra6 (40) peptide (peptide)
peptide: SVVPTVQKVRAGINTDVSYLLAGFGIVLSEDRQEVVELVK
notes: mouse STRA6 peptide of 40 residues with Tyr336, Gly340 and Gly342; also called msSTRA6 peptide; mouse STRA6 peptide; source: synthetic peptide (Biomatik Corporation)
Regarding B3, the Kd came to 26.7 µM.
